{
  "source": "paper PMC4357726",
  "binders": {"B1": {"name": "tRNAHis(GUG) transcript (TttRNAHis) (structured_RNA)", "RNA": "GGUGAGCGUAGCUCAGCUGGUAGACCACCGGACUGAGAUCCGGGGGUCGUGGGUUCAAGUCCCAUCGCUCACCCCA"}},
  "molecular_target": "T1, TtHisRS (histidyl-tRNA synthetase) (Thermus thermophilus HB27 (ATCC …, UniProt P62374 1-421))",
  "T1 sequence": "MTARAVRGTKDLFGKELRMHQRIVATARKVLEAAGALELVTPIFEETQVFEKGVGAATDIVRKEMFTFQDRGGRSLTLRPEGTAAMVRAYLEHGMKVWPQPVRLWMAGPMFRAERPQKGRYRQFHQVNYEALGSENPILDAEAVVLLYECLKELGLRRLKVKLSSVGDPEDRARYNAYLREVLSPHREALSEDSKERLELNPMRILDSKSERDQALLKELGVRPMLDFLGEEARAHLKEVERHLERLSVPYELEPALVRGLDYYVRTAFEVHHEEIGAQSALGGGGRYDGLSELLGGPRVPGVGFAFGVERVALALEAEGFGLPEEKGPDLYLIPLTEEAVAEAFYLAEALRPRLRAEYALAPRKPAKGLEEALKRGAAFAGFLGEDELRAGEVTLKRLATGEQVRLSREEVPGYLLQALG",
  "test": "X-ray crystallography",
  "data": [
    {"binder": "B1", "values": [
      {"measurement": "binding result", "result": "binds"}
    ]}
  ]
}
